± gives the standard deviation of the averaged measurements.
B1: library; a variant is named by its letters at N, in order (parent)
chain: GCUGUCACCGAGAAACUGUGAAGUAUAUCUUAAACCUGGGCACUUAAAAGAUAUAUGGAGUUAGUAGUGCAACCUGCUCGGUCUGAUGAGUCCNNNNNNGGACGAAACAGC

Experiments:
[1] = variants of: B1; assay: normalized RNA/DNA level without ligand (relative to sTRSVctl = 100) (log10 (% of sTRSVctl)); HEK293T; ligand: cyclic di-GMP (c-di-GMP-II aptamer); higher = less ribozyme self-cleavage, higher mRNA level; conditions: reporter: mCherry (pCS4076), ligand present: no
Method in brief: (§1)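 HEK293T cells were transfected with library plasmids carrying ribozyme switches linked to an mCherry reporter, or an eGFP reporter in some ligand experiments, at 4 µg per well of a 6-well plate, with any ligand added 1 h beforehand. After 72 h, total RNA was extracted with EDTA, reverse-transcribed, amplified, barcoded and sequenced. RNA level was defined as RNA reads over DNA reads, normalized to a spiked-in non-cleaving sequence or to the top-ranked sequences. That value was multiplied by 100 and converted to log10, the top set was 25 sequences, and only sequences with ≥100 DNA reads were retained.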

[2] = variants of: B1; assay: normalized RNA/DNA level with ligand (relative to sTRSVctl = 100) (log10 (% of sTRSVctl)); HEK293T; ligand: cyclic di-GMP (c-di-GMP-II aptamer); ligand concentration (+) RNA-Seq: 1 mM; higher = less ribozyme self-cleavage, higher mRNA level; conditions: reporter: mCherry (pCS4076), ligand present: yes
Method in brief: as §1

| Variant | normalized RNA/DNA level without ligand (log10) [1] | normalized RNA/DNA level with ligand (log10) [2] |
| --- | --- | --- |
| AGCUAA | 1.49 ± 0.02 | 1.7 ± 0.13 |
| CGCCGG | 1.711 ± 0.011 | 1.85 ± 0.11 |
| CGCCGU | 1.77 ± 0.049 | 1.87 ± 0.063 |
| CGCCGA | 1.6 ± 0.065 | 1.81 ± 0.072 |
| CGCCGC | 1.8 ± 0.068 | 1.91 ± 0.11 |
| GGGAUC | 1.66 ± 0.064 | 1.77 ± 0.09 |
| GGGAUA | 1.54 ± 0.19 | 1.66 ± 0.044 |
| AGGACU | 1.66 ± 0.014 | 1.82 ± 0.088 |
| AGGACG | 1.589 ± 0.0076 | 1.7 ± 0.1 |
| CGCUUG | 1.73 ± 0.043 | 1.88 ± 0.055 |
| CGCUUC | 1.62 ± 0.051 | 1.81 ± 0.081 |
| CGCCUG | 1.74 ± 0.036 | 1.82 ± 0.1 |
| AGCGCC | 1.7734 ± 0.0015 | 1.91 ± 0.082 |
| AGCGCA | 1.661 ± 0.005 | 1.78 ± 0.12 |
| AGCGCG | 1.708 ± 0.0043 | 1.83 ± 0.12 |
| AGCGCU | 1.7 ± 0.044 | 1.82 ± 0.17 |
| GGCUUG | 1.64 ± 0.062 | 1.851 ± 0.0082 |
| GGCUUC | 1.75 ± 0.064 | 1.82 ± 0.12 |
| GGCUUU | 1.73 ± 0.03 | 1.88 ± 0.075 |
| GGCUUA | 1.61 ± 0.074 | 1.79 ± 0.12 |
| GGCUAA | 1.55 ± 0.09 | 1.71 ± 0.14 |
| GGCUAC | 1.7 ± 0.023 | 1.84 ± 0.085 |
| GGCUAG | 1.5161 ± 0.00019 | 1.683 ± 0.0052 |
| GGCUAU | 1.66 ± 0.048 | 1.78 ± 0.021 |

| Variant | normalized RNA/DNA level without ligand (log10) [1] | normalized RNA/DNA level with ligand (log10) [2] |
| --- | --- | --- |
| CGCUGC | 1.806 ± 0.0025 | 1.9 ± 0.092 |
| CGCUGG | 1.67 ± 0.039 | 1.78 ± 0.086 |
| GGCCAU | 1.73 ± 0.03 | 1.84 ± 0.1 |
| GGCCAG | 1.74 ± 0.0068 | 1.85 ± 0.025 |
| GGCCAC | 1.7289 ± 0.0006 | 1.88 ± 0.083 |
| GGCCAA | 1.638 ± 0.01 | 1.74 ± 0.1 |
| AGCCAG | 1.68 ± 0.077 | 1.79 ± 0.058 |
| AGCCAU | 1.718 ± 0.0054 | 1.8 ± 0.11 |
| AGCCAC | 1.7 ± 0.041 | 1.86 ± 0.087 |
| UGGAGC | 1.64 ± 0.062 | 1.81 ± 0.15 |
| UGGAGA | 1.58 ± 0.082 | 1.76 ± 0.069 |
| UGGAGU | 1.59 ± 0.1 | 1.76 ± 0.11 |
| UGGAGG | 1.699 ± 0.0024 | 1.84 ± 0.14 |
| CGCGAC | 1.62 ± 0.041 | 1.8 ± 0.046 |
| CGCGAA | 1.23 ± 0.12 | 1.44 ± 0.11 |
| CGCGAG | 1.743 ± 0.0083 | 1.828 ± 0.012 |
| CGCGAU | 1.58 ± 0.05 | 1.79 ± 0.14 |
| AGGAGC | 1.61 ± 0.065 | 1.7 ± 0.13 |
| AGGAGG | 1.6462 ± 0.0014 | 1.74 ± 0.1 |
| AGGAGU | 1.52 ± 0.084 | 1.67 ± 0.058 |
| UGCAAG | 1.777 ± 0.0085 | 1.9 ± 0.088 |
| UGCAAC | 1.728 ± 0.0076 | 1.87 ± 0.099 |
| GGCGCA | 1.86 ± 0.064 | 1.92 ± 0.023 |
| GGCGCG | 1.72 ± 0.034 | 1.83 ± 0.19 |

| Variant | normalized RNA/DNA level without ligand (log10) [1] | normalized RNA/DNA level with ligand (log10) [2] |
| --- | --- | --- |
| GGCGCC | 1.79 ± 0.041 | 1.84 ± 0.083 |
| GGCGGC | 1.71 ± 0.021 | 1.89 ± 0.13 |
| GGCAUC | 1.65 ± 0.023 | 1.81 ± 0.087 |
| GGCAUU | 1.66 ± 0.076 | 1.82 ± 0.021 |
| GGCAUA | 1.58 ± 0.11 | 1.72 ± 0.14 |
| GGCAUG | 1.68 ± 0.085 | 1.7 ± 0.081 |
| GGCACC | 1.75 ± 0.06 | 1.82 ± 0.085 |
| GGCACU | 1.73 ± 0.12 | 1.885 ± 0.0081 |
| GGCACA | 1.69 ± 0.024 | 1.8 ± 0.12 |
| GGCACG | 1.76 ± 0.026 | 1.88 ± 0.039 |
| UGGACA | 1.712 ± 0.0091 | 1.83 ± 0.11 |
| UGGACG | 1.782 ± 0.011 | 1.86 ± 0.15 |
| GGCAGG | 1.82 ± 0.022 | 1.83 ± 0.042 |
| GGCAGA | 1.637 ± 0.013 | 1.76 ± 0.1 |
| GGCAGC | 1.716 ± 0.013 | 1.82 ± 0.081 |
| GGCAGU | 1.76 ± 0.071 | 1.849 ± 0.0031 |
| UGCCUU | 1.725 ± 0.0025 | 1.87 ± 0.082 |
| UGCCUA | 1.728 ± 0.0086 | 1.86 ± 0.074 |
| UGCCUC | 1.77 ± 0.072 | 1.9 ± 0.15 |
| UGCCUG | 1.78 ± 0.047 | 1.88 ± 0.14 |
| GGCCGC | 1.71 ± 0.03 | 1.84 ± 0.097 |
| GGCCCA | 1.8 ± 0.035 | 1.88 ± 0.082 |
| GGCCCU | 1.877 ± 0.012 | 1.94 ± 0.057 |
| GGCCCC | 1.92 ± 0.045 | 2 ± 0.13 |

| Variant | normalized RNA/DNA level without ligand (log10) [1] | normalized RNA/DNA level with ligand (log10) [2] |
| --- | --- | --- |
| UGCCAA | 1.689 ± 0.0043 | 1.83 ± 0.12 |
| UGCCAC | 1.77 ± 0.056 | 1.88 ± 0.15 |
| UGCCAU | 1.694 ± 0.0071 | 1.81 ± 0.11 |
| UGCCAG | 1.7634 ± 0.0015 | 1.87 ± 0.087 |
| UGCAGG | 1.747 ± 0.003 | 1.85 ± 0.12 |
| UGCAGC | 1.77 ± 0.031 | 1.87 ± 0.11 |
| UGCAGU | 1.66 ± 0.038 | 1.83 ± 0.11 |
| UGCAGA | 1.63 ± 0.031 | 1.8 ± 0.096 |
| GGGACA | 1.7 ± 0.042 | 1.75 ± 0.11 |
| GGGACU | 1.68 ± 0.031 | 1.83 ± 0.056 |
| GGGACC | 1.84 ± 0.063 | 1.9 ± 0.15 |
| UGCGUA | 1.6 ± 0.029 | 1.81 ± 0.1 |
| UGCGUC | 1.75 ± 0.019 | 1.85 ± 0.13 |
| UGCGUG | 1.71 ± 0.084 | 1.9 ± 0.096 |
| AGCGGC | 1.731 ± 0.0051 | 1.87 ± 0.074 |
| AGCGGG | 1.76 ± 0.043 | 1.9 ± 0.083 |
| AGCGGA | 1.52 ± 0.056 | 1.67 ± 0.086 |
| AGCAGG | 1.822 ± 0.018 | 1.85 ± 0.1 |
| AGCAGU | 1.689 ± 0.0032 | 1.84 ± 0.13 |
| UGCUUA | 1.75 ± 0.023 | 1.87 ± 0.095 |
| UGCUUG | 1.74 ± 0.06 | 1.88 ± 0.14 |
| UGCUUC | 1.766 ± 0.017 | 1.89 ± 0.093 |
| AGCGAG | 1.57 ± 0.13 | 1.74 ± 0.042 |
| AGCGAU | 1.71 ± 0.015 | 1.87 ± 0.1 |

| Variant | normalized RNA/DNA level without ligand (log10) [1] | normalized RNA/DNA level with ligand (log10) [2] |
| --- | --- | --- |
| AGCGAC | 1.65 ± 0.052 | 1.81 ± 0.077 |
| AGCCCA | 1.84 ± 0.046 | 1.92 ± 0.11 |
| AGCCCU | 1.77 ± 0.047 | 1.88 ± 0.12 |
| AGCCCC | 1.81 ± 0.031 | 1.92 ± 0.12 |
| UGCACU | 1.74 ± 0.021 | 1.87 ± 0.094 |
| UGCACC | 1.74 ± 0.036 | 1.84 ± 0.14 |
| UGCACG | 1.801 ± 0.014 | 1.91 ± 0.14 |
| UGCACA | 1.76 ± 0.05 | 1.89 ± 0.12 |
| GGCUCA | 1.69 ± 0.021 | 1.88 ± 0.22 |
| GGCUCU | 1.78 ± 0.041 | 1.92 ± 0.076 |
| GGCUCC | 1.88 ± 0.022 | 1.96 ± 0.11 |
| GGCUCG | 1.78 ± 0.055 | 1.87 ± 0.036 |
| CGCUAG | 1.747 ± 0.0046 | 1.87 ± 0.15 |
| AGCAAC | 1.65 ± 0.032 | 1.77 ± 0.092 |
| AGCAAG | 1.51 ± 0.09 | 1.68 ± 0.079 |
| CGCGGA | 1.446 ± 0.0059 | 1.62 ± 0.089 |
| CGCGGC | 1.74 ± 0.03 | 1.87 ± 0.11 |
| CGCGGG | 1.67 ± 0.1 | 1.87 ± 0.047 |
| CGCGGU | 1.67 ± 0.02 | 1.87 ± 0.13 |
| CGCCAG | 1.76 ± 0.075 | 1.9 ± 0.072 |
